Reference: patent US8106168B2, “Metalloproteinase binding proteins” (Dyax Corp., priority 2005, dated 2012)

T1: MMP-2 (Homo sapiens, UniProt P08253)
T1 sequence (P08253 110-660): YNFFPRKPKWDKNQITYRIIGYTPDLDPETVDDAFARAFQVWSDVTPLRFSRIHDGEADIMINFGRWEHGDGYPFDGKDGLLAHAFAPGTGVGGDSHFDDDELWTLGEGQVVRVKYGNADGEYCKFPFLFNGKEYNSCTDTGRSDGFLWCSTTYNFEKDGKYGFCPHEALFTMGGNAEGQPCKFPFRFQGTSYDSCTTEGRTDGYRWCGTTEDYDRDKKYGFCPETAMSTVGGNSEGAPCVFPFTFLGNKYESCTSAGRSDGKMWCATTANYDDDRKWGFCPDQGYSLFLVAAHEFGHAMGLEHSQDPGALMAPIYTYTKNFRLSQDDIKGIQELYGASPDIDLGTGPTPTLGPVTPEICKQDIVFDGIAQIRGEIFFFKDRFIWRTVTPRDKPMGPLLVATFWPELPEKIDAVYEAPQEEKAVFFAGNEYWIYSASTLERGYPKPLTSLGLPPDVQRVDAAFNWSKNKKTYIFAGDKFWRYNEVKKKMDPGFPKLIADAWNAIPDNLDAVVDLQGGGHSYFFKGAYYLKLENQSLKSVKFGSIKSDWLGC

T2: MMP-7 (Homo sapiens, UniProt P09237)
T2 sequence (P09237 95-267): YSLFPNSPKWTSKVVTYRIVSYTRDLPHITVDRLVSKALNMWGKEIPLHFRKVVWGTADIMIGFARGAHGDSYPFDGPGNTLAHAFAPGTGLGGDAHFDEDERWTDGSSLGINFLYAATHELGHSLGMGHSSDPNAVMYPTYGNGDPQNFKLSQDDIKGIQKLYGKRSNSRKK


How the values were obtained:
MMP-24 = MMP-24 (Homo sapiens, UniProt Q9Y5R2); assay: Cross-reactivity of anti-MMP-14 IgGs, enzymatic activity: MMP-24; assay type: biochemical; settings: 1 μM anti-MMP-14 IgG
MMP-24, sequence (Q9Y5R2 156-645): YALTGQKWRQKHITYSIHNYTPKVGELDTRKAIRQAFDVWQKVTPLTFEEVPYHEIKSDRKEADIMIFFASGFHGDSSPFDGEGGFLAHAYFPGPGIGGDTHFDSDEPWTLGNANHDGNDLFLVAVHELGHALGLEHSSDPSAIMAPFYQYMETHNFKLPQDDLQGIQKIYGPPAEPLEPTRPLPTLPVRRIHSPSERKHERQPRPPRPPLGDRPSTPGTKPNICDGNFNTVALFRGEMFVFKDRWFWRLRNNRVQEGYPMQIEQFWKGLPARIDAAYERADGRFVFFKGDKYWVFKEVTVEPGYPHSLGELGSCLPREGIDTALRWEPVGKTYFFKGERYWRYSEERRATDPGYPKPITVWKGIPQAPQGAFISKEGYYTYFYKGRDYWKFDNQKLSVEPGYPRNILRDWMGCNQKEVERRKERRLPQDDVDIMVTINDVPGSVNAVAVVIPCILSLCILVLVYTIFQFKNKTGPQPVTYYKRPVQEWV
Experimental: (§1) The cross-reactivity of exemplary anti-MMP-14 IgGs and Fabs with other human MMPs and TACE (TNF-alpha converting enzyme) was examined. MMP and TACE enzymatic activity was monitored in the absence and presence of 1 μM anti-MMP-14 IgG antibody. Inhibition (Y) of activity ranged from approximately 50-80% of the reaction rate observed in the absence of antibody. “X” indicates no inhibition was observed. Cross-reactivity was not determined for MMP-17 because protein activity could not be detected.
(§2) For the studies summarized in Table 12, six anti-MMP-14 IgGs were selected for cross-reactivity testings: M0043-G02, M0040-A06, M0037-D01, M037-C09, M0038-F01, M0033-H07.

MMP-13 = MMP-13 (Homo sapiens, UniProt P45452); assay: Cross-reactivity of anti-MMP-14 IgGs, enzymatic activity: MMP-13; assay type: biochemical; settings: 1 μM anti-MMP-14 IgG
Experimental: as §1, §2

MMP-9 = MMP-9 (Homo sapiens, UniProt P14780); assay: Cross-reactivity of anti-MMP-14 IgGs, enzymatic activity: MMP-9; assay type: biochemical; settings: 1 μM anti-MMP-14 IgG
MMP-9, sequence (P14780 94-707): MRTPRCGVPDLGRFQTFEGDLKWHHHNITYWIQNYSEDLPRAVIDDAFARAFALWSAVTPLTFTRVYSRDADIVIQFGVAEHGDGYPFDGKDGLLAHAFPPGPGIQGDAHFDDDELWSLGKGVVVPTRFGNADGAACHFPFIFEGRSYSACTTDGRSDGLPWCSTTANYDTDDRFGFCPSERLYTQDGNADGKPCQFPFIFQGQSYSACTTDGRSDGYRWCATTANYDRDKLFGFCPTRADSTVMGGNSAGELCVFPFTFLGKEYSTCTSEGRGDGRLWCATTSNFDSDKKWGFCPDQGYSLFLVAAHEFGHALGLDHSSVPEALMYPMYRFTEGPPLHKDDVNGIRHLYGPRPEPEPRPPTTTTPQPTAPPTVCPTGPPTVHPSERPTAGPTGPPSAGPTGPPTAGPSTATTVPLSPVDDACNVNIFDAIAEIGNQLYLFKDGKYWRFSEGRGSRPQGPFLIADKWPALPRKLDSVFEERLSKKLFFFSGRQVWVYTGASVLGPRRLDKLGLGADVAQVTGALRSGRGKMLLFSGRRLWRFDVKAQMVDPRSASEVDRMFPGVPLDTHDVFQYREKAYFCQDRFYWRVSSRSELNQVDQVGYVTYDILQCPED
Experimental: as §1, §2

MMP-12 = MMP-12 (Homo sapiens, UniProt P39900); assay: Cross-reactivity of anti-MMP-14 IgGs, enzymatic activity: MMP-12; assay type: biochemical; settings: 1 μM anti-MMP-14 IgG
MMP-12, sequence (P39900 106-470): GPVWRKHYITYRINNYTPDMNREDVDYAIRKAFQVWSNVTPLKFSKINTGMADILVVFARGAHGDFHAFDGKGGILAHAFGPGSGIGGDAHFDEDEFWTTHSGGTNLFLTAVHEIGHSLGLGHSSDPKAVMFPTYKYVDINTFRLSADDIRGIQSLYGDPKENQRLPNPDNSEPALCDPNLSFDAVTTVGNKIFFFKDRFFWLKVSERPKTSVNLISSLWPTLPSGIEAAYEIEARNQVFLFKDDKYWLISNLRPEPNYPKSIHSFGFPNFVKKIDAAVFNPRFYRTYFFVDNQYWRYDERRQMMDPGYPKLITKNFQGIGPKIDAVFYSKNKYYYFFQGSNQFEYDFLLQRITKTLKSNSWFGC
Experimental: as §1, §2

MMP-2 = target: T1, MMP-2; assay: Cross-reactivity of anti-MMP-14 IgGs, enzymatic activity: MMP-2; assay type: biochemical; settings: 1 μM anti-MMP-14 IgG
Experimental: as §1, §2

MMP-3 = MMP-3 (Homo sapiens, UniProt P08254); assay: Cross-reactivity of anti-MMP-14 IgGs, enzymatic activity: MMP-3; assay type: biochemical; settings: 1 μM anti-MMP-14 IgG
MMP-3, sequence (P08254 100-477): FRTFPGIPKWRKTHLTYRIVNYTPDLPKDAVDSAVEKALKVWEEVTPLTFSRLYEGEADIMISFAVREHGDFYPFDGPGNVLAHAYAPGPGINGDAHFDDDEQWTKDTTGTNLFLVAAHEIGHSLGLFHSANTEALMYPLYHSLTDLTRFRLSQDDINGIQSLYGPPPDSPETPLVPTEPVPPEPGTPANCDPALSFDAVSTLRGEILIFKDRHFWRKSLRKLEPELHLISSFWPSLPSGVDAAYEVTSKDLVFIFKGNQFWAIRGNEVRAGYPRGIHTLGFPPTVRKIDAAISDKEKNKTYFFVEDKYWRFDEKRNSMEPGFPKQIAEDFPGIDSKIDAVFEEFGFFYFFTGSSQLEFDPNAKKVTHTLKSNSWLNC
Experimental: as §1, §2

MMP-7 = target: T2, MMP-7; assay: Cross-reactivity of anti-MMP-14 IgGs, enzymatic activity: MMP-7; assay type: biochemical; settings: 1 μM anti-MMP-14 IgG
Experimental: as §1, §2

MMP-8 = MMP-8 (Homo sapiens, UniProt P22894); assay: Cross-reactivity of anti-MMP-14 IgGs, enzymatic activity: MMP-8; assay type: biochemical; settings: 1 μM anti-MMP-14 IgG
MMP-8, sequence (P22894 101-467): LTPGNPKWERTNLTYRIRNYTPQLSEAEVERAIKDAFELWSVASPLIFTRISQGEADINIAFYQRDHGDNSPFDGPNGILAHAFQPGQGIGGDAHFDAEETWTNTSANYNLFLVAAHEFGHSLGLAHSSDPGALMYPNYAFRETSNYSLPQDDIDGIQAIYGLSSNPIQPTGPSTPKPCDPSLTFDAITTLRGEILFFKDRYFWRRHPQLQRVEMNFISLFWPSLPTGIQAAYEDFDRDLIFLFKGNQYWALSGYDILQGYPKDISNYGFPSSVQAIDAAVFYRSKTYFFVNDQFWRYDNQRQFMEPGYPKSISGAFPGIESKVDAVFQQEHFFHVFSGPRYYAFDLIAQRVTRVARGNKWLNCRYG
Experimental: as §1, §2

MDA-MB-435 GFP tumors = assay: MDA-MB-435 GFP orthotopic breast tumor growth; assay type: in vivo, mouse; settings: for Tumor Mass (±SD): excised primary tumor
Excerpt: Fragments of MDA-MB-435 GFP (MDA-MB-435 cells expressing green fluorescent protein) tumors were transplanted by surgical orthotopic implantation (SOI) into the right second mammary gland. Treatment was started on day 15 after SOI when the volume of primary tumors reached about 85 mm^3.
Mice were sacrificed at day 61 after the start of the treatment and tumors (primary and metastases) were identified by fluorescent imaging. Additionally, primary tumors were excised and weighed. […] However, M0038-F01 was not effective in reducing lymph node or lung metastases in this experiment.

[1] = system: Streptococcus cell wall (SCW)-induced arthritis, knee joints; assay: SCW-induced arthritis, joint swelling; assay type: in vivo, mouse; settings: 2, 6 or 10 mg/kg IP at day 13, 16, 20 and 23; technecium uptake
Experimental: Antigen-induced arthritis, a model of rheumatoid arthritis, was induced by intraarticular injection of Streptococcus cell wall (SCW, […]) into the knee joints of C57B16 mice at day 0, 7, 14 and 21.
Mice were assorted into groups of six animals each and treated (by IP injection) with M0038-F01 (2, 6, or 10 mg/kg), a control isotype-matched antibody (control, 20 mg/ml), or etanercept (ENBREL®, 5 mg/ml) at day 13, 16, 20, and 23. Joint swelling (measured by technecium uptake) was measured at day 15, 16, 22, 23 and 28.

[2] = system: activation of pro-MMP-2 by MMP-14 in PMA-activated HT-1080 cells; assay: Gelatin zymogram, pro-MMP-2 activation in HT-1080 cells; assay type: cell-based, human; settings: gelatin zymography of conditioned media after 3 days; antibodies 10 μg/ml, GM6001 10 μM
Experimental: The ability of anti-MMP-14 IgGs to inhibit the activation of pro-MMP-2 by MMP-14 was examined by gelatin zymogram experiments performed with PMA-activated HT-1080 cells. M0033-H07 and M0038-F01 were tested for their ability to inhibit MMP-14 in this assay. HT1080 cells (well-known to express MMP-14 and MMP-2) were seeded at 5×10^5 cells/well at Day 0. […] HT-1080 cells cultured in the presence of 20 ng/ml of PMA were used as a positive control.
After 3 days of incubation, conditioned media were collected and gelatinolytic activities were analyzed by gelatin zymography as described previously (Maquoi et al, J Biol Chem 2000; 275:11368-78). When HT-1080 cells are activated with a phorbol ester, pro-MMP-2 is activated into MMP-2 (lane 1).

[3] = system: BT747 breast cancer tumor fragments; assay: BT747 breast tumor growth; assay type: in vivo, mouse; settings: small initial tumor size groups; M0038-F01 10, 1 or 0.1 mg/kg Q2d IP; trastuzumab 20 mg/kg
Experimental: Fragments (approximately 1 mm^3) of BT747 breast cancer tumor fragments were implanted into the flanks of female HRLN CB.17 SCID mice. […] All groups were dosed by intraperitoneal (IP) injection. Tumor volume was measured biweekly.

Row | Molecule | Cross reactivity: inhibition of MMP-24 activity (MMP-24) | Cross reactivity: inhibition of MMP-13 activity (MMP-13) | Cross reactivity: inhibition of MMP-9 activity (MMP-9) | Cross reactivity: inhibition of MMP-12 activity (MMP-12) | Cross reactivity: inhibition of MMP-2 activity (MMP-2) | Cross reactivity: inhibition of MMP-3 activity (MMP-3) | Cross reactivity: inhibition of MMP-7 activity (MMP-7) | Cross reactivity: inhibition of MMP-8 activity (MMP-8) | Tumor Mass (±SD) (MDA-MB-435 GFP tumors; 0.1 mg/kg Q2d IP, day 61) | Tumor Mass (±SD) (MDA-MB-435 GFP tumors; 1 mg/kg Q2d IP, day 61, * p≦0.05 compared to Control) | Tumor Mass (±SD) (MDA-MB-435 GFP tumors; 10 mg/kg (F01 and A2 Q2d IP; taxotere QW×3 i.v.), day 61, * p≦0.05 compared to Control) | tumor volume (MDA-MB-435 GFP tumors; M0038-F01 1 or 10 mg/kg Q2d IP, taxotere 10 mg/kg QW×3 i.v.) | lymph node or lung metastases (MDA-MB-435 GFP tumors; fluorescent imaging, day 61) | joint swelling [1] | pro-MMP-2 activation by MMP-14 [2] | pro-MMP-9 expression [2] | tumor growth [3]
1 | M0043-G02: human antibody (Fab, IgG) that binds and inhibits MMP-14; HC SEQ ID NO: 166, LC SEQ ID NO: 167 (antibody, V domains shown, Synthetically generated peptide) VH: EVQLLESGGGLVQPGGSLRLSCAASGFTFSWYPMFWVRQAPGKGLEWVSGIYSSGGPTDYADSVKGRFTISRDNSKNTLYLQMNSLRAEDTAVYYCAKDTLGRYYDFWSGYSYGMDVWGQGTTVTVSS VL: QDIQMTQSPGTLSLSPGERATLSCRASQSVSSSYLAWYQQKPGQAPRLLIYGASSRATGIPDRFSGSGSGTDFTLTISRLEPEDFAVYYCQSGVTFGGGTKVEIK | Y (Inhibition (Y) of activity ranged from approximately 50-80% of the reaction rate observed in the absence of antibody) | Y (Inhibition (Y) of activity ranged from approximately 50-80% of the reaction rate observed in the absence of antibody) | Y (Inhibition (Y) of activity ranged from approximately 50-80% of the reaction rate observed in the absence of antibody) | Y (Inhibition (Y) of activity ranged from approximately 50-80% of the reaction rate observed in the absence of antibody) | Y (Inhibition (Y) of activity ranged from approximately 50-80% of the reaction rate observed in the absence of antibody) | – | – | – | – | – | – | – | – | – | – | – | –
2 | M0040-A06: human antibody (Fab, IgG) that binds and inhibits MMP-14; HC SEQ ID NO: 162, LC SEQ ID NO: 163 (antibody, V domains shown, Synthetically generated peptide) VH: EVQLLESGGGLVQPGGSLRLSCAASGFTFSYYGMYWVRQAPGKGLEWVSSISSSGGYTDYADSVKGRFTISRDNSKNTLYLQMNSLRAEDTAVYYCARRIKYYDIEGEGAFDIWGQGTMVTVSS VL: QDIVMTQTPPSLPVNPGEPASISCRSSQSLLHRNGYNYLDWYLQKPGQSPQLLIHLGSYRASGVPDRFSGSGSGTDFTLKISRVEAEDVGVYYCMQPLQTPFTFGPGTKVDIK | Y (Inhibition (Y) of activity ranged from approximately 50-80% of the reaction rate observed in the absence of antibody) | Y (Inhibition (Y) of activity ranged from approximately 50-80% of the reaction rate observed in the absence of antibody) | Y (Inhibition (Y) of activity ranged from approximately 50-80% of the reaction rate observed in the absence of antibody) | Y (Inhibition (Y) of activity ranged from approximately 50-80% of the reaction rate observed in the absence of antibody) | Y (Inhibition (Y) of activity ranged from approximately 50-80% of the reaction rate observed in the absence of antibody) | Y (Inhibition (Y) of activity ranged from approximately 50-80% of the reaction rate observed in the absence of antibody) | Y (Inhibition (Y) of activity ranged from approximately 50-80% of the reaction rate observed in the absence of antibody) | Y (Inhibition (Y) of activity ranged from approximately 50-80% of the reaction rate observed in the absence of antibody) | – | – | – | – | – | – | – | – | –
3 | M0038-F01: human antibody (Fab, IgG) that binds and inhibits MMP-14; HC SEQ ID NO: 156, LC SEQ ID NO: 157 (antibody, V domains shown, Synthetically generated peptide) VH: EVQLLESGGGLVQPGGSLRLSCAASGFTFSLYSMNWVRQAPGKGLEWVSSIYSSGGSTLYADSVKGRFTISRDNSKNTLYLQMNSLRAEDTAVYYCARGRAFDIWGQGTMVTVSS VL: QDIQMTQSPSSLSAFVGDKVTITCRASQSVGTYLNWYQQKAGKAPELLIYATSNLRSGVPSRFSGSGSGTDFTLTINTLQPEDFATYYCQQSYSIPRFTFGPGTKVDIK | – | – | – | – | – | – | – | – | 1.54 ± 0.91 | 0.86 ± 0.21* | 0.82 ± 0.35* | reduction of tumor volume | not effective | did not have an effect | completely inhibits | No stimulation | inhibition of tumor growth
